B1: HDV Ribozyme (parent)
chain: GGCCGGCAUGGUCCCAGCCUCCUCGCUGGCGCCGGCUGGGCAACAUUCCGAGGGGACCGUCCCCUCGGUAAUGGCGAAUGGGACCCA

Variants of: B1
Assay: self-cleavage, relative activity (ratio to wild type); higher = more cleavage; co-transcriptional
A77U C86A showed a self-cleavage of 0.831. Work on A77U C86U yielded a self-cleavage of 0.729. A77G C85A showed a self-cleavage of 0.851. With G73C G80A the self-cleavage was 0.284. C75G U79C showed a self-cleavage of 0.113. For G74U A77C, the self-cleavage was 0.123. Variant G80U C85A has a self-cleavage of 0.288. U79A C86U gave a self-cleavage of 1.02. Work on U79A C86G yielded a self-cleavage of 0.81. Variant G76C A77G has a self-cleavage of 1. Work on G73A C84A yielded a self-cleavage of 0.564. Variant U72G C84U has a self-cleavage of 0.386. In the case of A78G G80C, the self-cleavage is reported as 0.329. In the case of A77C A78C, the self-cleavage is reported as 0.208. U79G C84U showed a self-cleavage of 0.554. In the case of U72G C85G, the self-cleavage is reported as 0.609. With C75G G82U the self-cleavage was 0.215. In the case of G73C C86U, the self-cleavage is reported as 0.914. C75U C86G gave a self-cleavage of 0.145. Work on C86U yielded a self-cleavage of 0.935. C86G gave a self-cleavage of 0.983. Variant C86A has a self-cleavage of 0.926. For G80C C84A, the self-cleavage was 0.144. Work on G74A A77U yielded a self-cleavage of 0.267. In the case of A78C C85G, the self-cleavage is reported as 0.0852. In the case of G74U C84G, the self-cleavage is reported as 0.126. With A77C C85G the self-cleavage was 0.492. In the case of A77C C85A, the self-cleavage is reported as 0.506. G73U A77U gave a self-cleavage of 0.0811. G76C G81C showed a self-cleavage of 0.0875. For A78C C86G, the self-cleavage was 0.14. A78C C86A gave a self-cleavage of 0.192. Variant A78C C86U has a self-cleavage of 0.225. G81A C84U gave a self-cleavage of 0.327. For A77U A78G, the self-cleavage was 0.443. In the case of C75U G80C, the self-cleavage is reported as 0.142. With C75U G80U the self-cleavage was 0.178. With C75A U79A the self-cleavage was 0.256. In the case of C75A U79G, the self-cleavage is reported as 0.208. Variant C84A A87U has a self-cleavage of 1.02. Variant G74A C85U has a self-cleavage of 0.462. For G74A C85G, the self-cleavage was 0.601. With G73C G76A the self-cleavage was 0.604. In the case of C75U U79C, the self-cleavage is reported as 0.172. Variant G80C A83C has a self-cleavage of 0.128. A83C C86A gave a self-cleavage of 0.554. C85A gave a self-cleavage of 0.932. Work on C85U yielded a self-cleavage of 0.978. Variant C85G has a self-cleavage of 0.948. Work on A77U yielded a self-cleavage of 0.623. A77C showed a self-cleavage of 0.377. For A77G, the self-cleavage was 0.887. Variant G76C C85G has a self-cleavage of 1.23. For G76C C85A, the self-cleavage was 0.873. In the case of G76C C85U, the self-cleavage is reported as 1.14. With U79A G81C the self-cleavage was 0.0504. U79A G81U showed a self-cleavage of 0.295. G73C G81A showed a self-cleavage of 0.0817. Variant G80C G81A has a self-cleavage of 0.089. A77C C84U showed a self-cleavage of 0.326. In the case of G76A A77C, the self-cleavage is reported as 0.657. In the case of G76A A77G, the self-cleavage is reported as 1.04. With G76A A77U the self-cleavage was 0.76. Work on G80A G82U yielded a self-cleavage of 0.0511. In the case of A78G G82A, the self-cleavage is reported as 0.365. A78U C84G gave a self-cleavage of 0.0396. A78U C84A gave a self-cleavage of 0.185. Work on A77C G82A yielded a self-cleavage of 0.358. In the case of G73A C85G, the self-cleavage is reported as 0.703. For C86A A87U, the self-cleavage was 0.9. With A78G G81A the self-cleavage was 0.115. Work on G74U G82A yielded a self-cleavage of 0.217. G76U A83U gave a self-cleavage of 0.481. G76U A83C showed a self-cleavage of 0.755. In the case of G76U A83G, the self-cleavage is reported as 0.787. For G76A C86A, the self-cleavage was 0.855. Work on A77U A83C yielded a self-cleavage of 0.231. For A77U A83G, the self-cleavage was 0.261. For U79A A83C, the self-cleavage was 0.151. C75U G82C showed a self-cleavage of 0.108. Work on G73U G74C yielded a self-cleavage of 0.126. Work on G73U G74U yielded a self-cleavage of 0.22. For G73C A78G, the self-cleavage was 0.237. Variant G82U has a self-cleavage of 0.41. For G82C, the self-cleavage was 0.259. G82A gave a self-cleavage of 0.418. With G76U A77G the self-cleavage was 0.978. Variant G74U C85U has a self-cleavage of 0.614. A83G C85U showed a self-cleavage of 0.9. Variant A78G C85U has a self-cleavage of 0.748. Variant A78C G82C has a self-cleavage of 0.0831. U79A A87G showed a self-cleavage of 0.752. U79G C86A gave a self-cleavage of 0.675. In the case of C84G C86G, the self-cleavage is reported as 0.522. In the case of G74C C75G, the self-cleavage is reported as 0.0386. With C75U C84U the self-cleavage was 0.0767. G73C C85U gave a self-cleavage of 0.415. G73C C85G showed a self-cleavage of 0.527. Work on G81C G82C yielded a self-cleavage of 0.106. G82U A87U showed a self-cleavage of 0.462. Work on G74U A78U yielded a self-cleavage of 0.332. In the case of G80U G81A, the self-cleavage is reported as 0.277. With G80U G81U the self-cleavage was 0.191. Work on C75U A78C yielded a self-cleavage of 0. With A77G C84G the self-cleavage was 0.573. Work on A77G C84A yielded a self-cleavage of 0.464. In the case of G74U C75A, the self-cleavage is reported as 0.228. Variant A78U C85G has a self-cleavage of 0.326. In the case of G81A A83C, the self-cleavage is reported as 0.165. With G81A A83U the self-cleavage was 0.187. For G80A C84G, the self-cleavage was 0.161. G80A C84A showed a self-cleavage of 0.58. G74C A78U showed a self-cleavage of 0.332. With G74C A78C the self-cleavage was 0.185. With G80U C84A the self-cleavage was 0.652. For A77U G81C, the self-cleavage was 0.157. With A77U G82C the self-cleavage was 0.208. Variant G76C A87G has a self-cleavage of 1.08. G76C A87U showed a self-cleavage of 1.1. C86U A87U showed a self-cleavage of 0.835. G76A U79G showed a self-cleavage of 0.672. With A83C A87C the self-cleavage was 0.499. With C84A C86G the self-cleavage was 0.755. With U79C C86A the self-cleavage was 0.513. Work on A77C G81C yielded a self-cleavage of 0.0504. Variant G81A C85A has a self-cleavage of 0.35. For C84G A87C, the self-cleavage was 0.409. Variant C84G A87G has a self-cleavage of 0.282. C85G C86A showed a self-cleavage of 0.763. For G74A A87G, the self-cleavage was 0.339. C85G A87C showed a self-cleavage of 0.849.
